doi:10.1101/348268

What was measured:
[1] = target: Mesoplasma florum ribonucleotide reductase protein R2 (MfR2), active form with meta-hydroxylated Tyr126 (DOPA) (Mesoplasma florum); assay: crystal structure
[2] = target: Mesoplasma florum ribonucleotide reductase protein R2 (MfR2), inactive form with unmodified Tyr126 (Mesoplasma florum); assay: crystal structure

stoichiometry N [1]	stoichiometry N [2]	Substance
2	–	Mesoplasma florum ribonucleotide reductase protein R2 (MfR2), active form with meta-hydroxylated Tyr126 (DOPA) (enzyme)
–	2	Mesoplasma florum ribonucleotide reductase protein R2 (MfR2), inactive form with unmodified Tyr126 (enzyme)
